In publication PMC10245715 (bioRxiv, 2023):

Target: p97 (valosin-containing protein, VCP), full-length, wildtype, human (human, UniProt P55072 1-806)
Assay: SEC

p97 (valosin-containing protein, VCP), full-length, wildtype, human, sequence (P55072 whole entry): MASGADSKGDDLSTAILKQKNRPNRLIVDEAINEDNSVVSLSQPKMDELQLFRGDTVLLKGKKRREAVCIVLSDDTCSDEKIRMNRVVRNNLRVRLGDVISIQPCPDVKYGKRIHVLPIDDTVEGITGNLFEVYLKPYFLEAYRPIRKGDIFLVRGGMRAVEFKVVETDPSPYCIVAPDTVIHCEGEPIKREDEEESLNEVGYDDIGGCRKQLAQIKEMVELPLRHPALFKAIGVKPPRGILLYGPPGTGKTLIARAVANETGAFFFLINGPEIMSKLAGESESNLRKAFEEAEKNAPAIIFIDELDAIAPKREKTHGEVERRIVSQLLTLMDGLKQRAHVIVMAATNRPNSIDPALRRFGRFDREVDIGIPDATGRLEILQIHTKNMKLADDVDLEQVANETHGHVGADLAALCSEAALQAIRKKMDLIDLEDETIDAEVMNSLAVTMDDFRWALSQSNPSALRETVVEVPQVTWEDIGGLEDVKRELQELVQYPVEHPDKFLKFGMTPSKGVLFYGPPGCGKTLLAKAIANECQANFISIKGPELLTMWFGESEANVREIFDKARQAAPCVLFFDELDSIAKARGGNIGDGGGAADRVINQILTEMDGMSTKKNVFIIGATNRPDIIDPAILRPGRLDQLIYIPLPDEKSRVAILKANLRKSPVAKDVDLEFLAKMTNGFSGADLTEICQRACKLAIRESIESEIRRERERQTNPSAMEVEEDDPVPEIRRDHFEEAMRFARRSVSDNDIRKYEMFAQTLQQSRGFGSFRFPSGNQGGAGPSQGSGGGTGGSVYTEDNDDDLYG

B1: UBXD1 double mutant containing both the lariat and H4 changes, full-length (natural protein)
chain: MKKFFQEFKADIKFKSAGPGQKLKESVGEKAHKEKPNQPAPRPPRQGPTNEAQMAAAAALARLEQKQSRAWGPTQSRDVTQERIQNKAVLTEASGSPEAPGTNVVSEPREEGSAHLAVPGVYFTCPLTGATLRKDQRDACIKEAILLHFSTDPVAASIMKIYTFNKDQDRVKLGVDTIAKYLDNIHLHPEEEKYRKIKLQNKVFQERINCLEGTHEFFEAIGFQKVLLPAQDQEDPEEFYVLSETTLAQPQSLERHKEQLLAAEPVRAKLDRQRRVFQPSPLASQFELPGDFFNLTAERIKEEQRLESEAVRRLSVLRTKAMREKEEQRGLRKYNYTLLRVRLPDGCLLQGTFYARERLGAVYGFVREALQSDWLPFELLASGGQKLSEDENLALNECGLVPSALLTFSWDMAVLEDIKAAGAEPDSILKPELLSAIEKLL
B1: binds.
